Assays:
[1] = molecular target: recombinant human IL-17 (Peprotech #200-17) (human) (UniProt Q16552); test: ELISA, coated IL-17 subtype, antibody 10 µg/ml, OD 405/492 nm
[2] = molecular target: recombinant human IL-17 (Peprotech #200-17) (human) (UniProt Q16552); test: cell-based or functional assay
human IL-17D = molecular target: T1, human IL-17D (human, UniProt Q8TAD2 18-202, limits assumed); test: ELISA, coated IL-17 subtype, antibody 10 µg/ml, OD 405/492 nm
T1 sequence (looked up): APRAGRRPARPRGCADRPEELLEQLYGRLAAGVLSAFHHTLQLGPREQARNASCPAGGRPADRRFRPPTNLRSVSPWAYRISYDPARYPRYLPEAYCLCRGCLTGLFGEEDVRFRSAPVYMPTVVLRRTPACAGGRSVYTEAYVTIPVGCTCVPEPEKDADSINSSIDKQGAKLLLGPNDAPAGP

human IL-17E = molecular target: T2, human IL-17E (human, UniProt Q9H293 33-177, limits assumed); test: as above
T2 sequence (looked up): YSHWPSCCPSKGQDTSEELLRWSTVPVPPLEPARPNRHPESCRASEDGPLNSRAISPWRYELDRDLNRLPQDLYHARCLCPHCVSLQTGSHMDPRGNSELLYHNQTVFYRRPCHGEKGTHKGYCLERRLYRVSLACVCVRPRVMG

human IL-17F [3] = molecular target: T3, human IL-17F (human, UniProt Q96PD4 31-163, limits assumed); test: as above
T3 sequence (looked up): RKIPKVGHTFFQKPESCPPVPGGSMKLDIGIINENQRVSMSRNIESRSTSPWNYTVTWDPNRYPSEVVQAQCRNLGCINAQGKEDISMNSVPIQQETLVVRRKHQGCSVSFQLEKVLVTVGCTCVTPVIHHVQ

human IL-17C [4] = molecular target: T4, human IL-17C (human, UniProt Q9P0M4 19-197, limits assumed); test: as above
T4 sequence (looked up): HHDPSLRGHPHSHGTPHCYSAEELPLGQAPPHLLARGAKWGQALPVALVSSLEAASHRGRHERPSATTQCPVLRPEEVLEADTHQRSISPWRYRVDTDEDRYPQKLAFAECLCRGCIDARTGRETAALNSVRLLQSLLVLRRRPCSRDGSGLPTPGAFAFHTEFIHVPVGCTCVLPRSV

human IL-17B = molecular target: T5, human IL-17B (human, UniProt Q9UHF5 21-180, limits assumed); test: as above
T5 sequence (looked up): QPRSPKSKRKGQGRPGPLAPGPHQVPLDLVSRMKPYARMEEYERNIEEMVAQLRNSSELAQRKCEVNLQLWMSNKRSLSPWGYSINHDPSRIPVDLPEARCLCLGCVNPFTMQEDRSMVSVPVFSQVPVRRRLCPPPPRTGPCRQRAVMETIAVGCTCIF

[5] = molecular target: cynomolgus IL-17A (cynomolgus monkey); test: cell-based or functional assay
[6] = molecular target: T6, recombinant human IL-17 (Peprotech #200-17) (human, UniProt Q16552 20-155); test: cell-based or functional assay
T6 sequence (looked up): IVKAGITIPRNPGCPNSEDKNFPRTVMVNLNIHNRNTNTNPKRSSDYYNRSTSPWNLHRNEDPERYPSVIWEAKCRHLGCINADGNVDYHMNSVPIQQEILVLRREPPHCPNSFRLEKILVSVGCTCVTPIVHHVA

cynomolgus IL-17A = molecular target: T7, cynomolgus IL-17A (cynomolgus monkey, UniProt A0A2K5TTB0 24-155); test: cell-based or functional assay
T7 sequence: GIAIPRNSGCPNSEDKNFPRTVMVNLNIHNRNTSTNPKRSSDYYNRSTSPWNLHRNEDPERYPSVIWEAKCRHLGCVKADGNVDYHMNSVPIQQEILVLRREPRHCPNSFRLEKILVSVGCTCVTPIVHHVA

human IL-17F [7] = molecular target: T3, human IL-17F; test: ELISA on immobilized IL-17 variant
human IL-17C [8] = molecular target: T4, human IL-17C; test: ELISA on immobilized IL-17 variant
[9] = molecular target: T6, recombinant human IL-17 (Peprotech …); test: cell-based or functional assay; remark: listed apart in the source
[10] = molecular target: T6, recombinant human IL-17 (Peprotech …); test: ELISA, coated IL-17 subtype, antibody 10 µg/ml, OD 405/492 nm

Molecule: MAB 317 of R&D Systems (antibody)
- Binding (IL-17A binding set as 100) (% (IL-17A binding set as 100)) [1]: 100
- IL-6 Neutralization IC50 [2]: 5.5 nM
- IL-8 Neutralization IC50 [2]: 5.5 nM
- Binding (IL-17A binding set as 100) (% (IL-17A binding set as 100)) (human IL-17D): 0
- Binding (IL-17A binding set as 100) (% (IL-17A binding set as 100)) (human IL-17E): 0
- Binding (IL-17A binding set as 100) (% (IL-17A binding set as 100)) (human IL-17F [3]): 0
- Binding (IL-17A binding set as 100) (% (IL-17A binding set as 100)) (human IL-17C [4]): 0
- Binding (IL-17A binding set as 100) (% (IL-17A binding set as 100)) (human IL-17B): 0

Molecule: Mab 16-7178-85 of eBioscience (antibody)
- Binding (IL-17A binding set as 100) (% (IL-17A binding set as 100)) [1]: 100
- Binding (IL-17A binding set as 100) (% (IL-17A binding set as 100)) (human IL-17D): 6
- Binding (IL-17A binding set as 100) (% (IL-17A binding set as 100)) (human IL-17E): 5
- Binding (IL-17A binding set as 100) (% (IL-17A binding set as 100)) (human IL-17F [3]): 5
- Binding (IL-17A binding set as 100) (% (IL-17A binding set as 100)) (human IL-17C [4]): 97
- Binding (IL-17A binding set as 100) (% (IL-17A binding set as 100)) (human IL-17B): 7

Molecule: NVP-AIN-497 (WO 2006013107) (antibody)
- Binding (IL-17A binding set as 100) (% (IL-17A binding set as 100)) [1]: 100
- IL-6 Neutralization IC50 (nM) (using 100 ng/ml IL-17A) [5]: > 10 nM
- IL-8 Neutralization IC50 (nM) (using 100 ng/ml IL-17A) [5]: > 10 nM
- IL-6 Neutralization IC50 (nM) (using 100 ng/ml IL-17A) [2]: 5 nM
- IL-8 Neutralization IC50 (nM) (using 100 ng/ml IL-17A) [2]: 4.2 nM
- Binding (IL-17A binding set as 100) (% (IL-17A binding set as 100)) (human IL-17D): 0
- Binding (IL-17A binding set as 100) (% (IL-17A binding set as 100)) (human IL-17E): 3
- Binding (IL-17A binding set as 100) (% (IL-17A binding set as 100)) (human IL-17F [3]): 62
- Binding (IL-17A binding set as 100) (% (IL-17A binding set as 100)) (human IL-17C [4]): 2
- Binding (IL-17A binding set as 100) (% (IL-17A binding set as 100)) (human IL-17B): 2

B1: Mab 106 (antibody, V domains shown)
VH: EVQLVESGGGLVQPGGSLRLSCAASGFTFSDYTMLWVRQAPGKGLEWVAIIKSGGSYSYYPDSVKGRFTISRDNAKNSLYLQMNSLRAEDTAVYYCARDGDYGSSYGAMDYWGQGTLVTVSS
VL: DIQMTQSPSSLSASVGDRVTITCRASQDINSYLSWFQQKPGKAPKSLIYRANRLVDGVPSRFSGSGSGQDYSLTISSLQPEDFATYYCLQYDAFPPYTFGQGTKLEIK
notes: Humanized version of 3C1; Only the variable domains are tied to it; also called Mab K106
- IL-6 Neutralization IC50 (nM) (using 100 ng/ml IL-17A) [6]: 2.1 nM
- IL-8 Neutralization IC50 (nM) (using 100 ng/ml IL-17A) [6]: 1.6 nM
- IL-6 Neutralization IC50 (nM) (using 100 ng/ml IL-17A) (cynomolgus IL-17A): 0.7 nM
- IL-8 Neutralization IC50 (nM) (using 100 ng/ml IL-17A) (cynomolgus IL-17A): 0.6 nM
- binding result (human IL-17F [7]): no binding (tested: S/N ratio lower than 7:1)
- binding result (human IL-17C [8]): no binding (tested: S/N ratio lower than 7:1)
- IL-6 Neutralization IC50 [9]: 1 nM
- IL-8 Neutralization IC50 [9]: 1 nM
- Binding (IL-17A binding set as 100) (human IL-17D): 0 % (IL-17A binding set as 100)
- Binding (IL-17A binding set as 100) (human IL-17E): 1 % (IL-17A binding set as 100)
- Binding (IL-17A binding set as 100) [10]: 100 % (IL-17A binding set as 100)
- Binding (IL-17A binding set as 100) (human IL-17F [3]): 0 % (IL-17A binding set as 100)
- Binding (IL-17A binding set as 100) (human IL-17C [4]): 0 % (IL-17A binding set as 100)
- Binding (IL-17A binding set as 100) (human IL-17B): 0 % (IL-17A binding set as 100)
